# Assay results reported in the supplement of paper PMC12636428.
# System: Saccharomyces cerevisiae
# Test: transcriptional activation domain activity (GFP:mCherry ratio, weighted mean of sorted bins, harmonized to initial dataset scale) (arbitrary fluorescence ratio units); higher = stronger transcriptional activation
# Conditions: beta-estradiol 1 µM; induction time 4 h
# Method in brief: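 Values are activation activity, found as the read-weighted mean of bin median fluorescence, averaged across barcodes and then mapped linearly onto the initial dataset scale. Barcoded protein tiles fused to an estradiol-inducible synthetic transcription factor were integrated at the URA3 locus of GFP-reporter yeast diploids. Cells were induced for 4 hours at 30 °C with 1 uM beta-estradiol in SC, sorted into 8 bins by GFP:mCherry ratio, and barcode-sequenced, with tiles under 50 reads discarded.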
row,Sequence,transcriptional activation domain activity
1,LSFRFLDYTSLTHCVDYRNPALAFNILVTCLLFLILRPKPLVLYWCLVCIGFW,44700
2,HPLIDVSEEAFIQLAYLAVALAKHLCILTRVTYYQNVKGLSSSHFMYLFYICL,40200
3,GKPRKRLAQACLTCREKKIKCDPGSPKCAQCQKSHRICRGTGSVASSGGPVGV,19000
4,RYLLLSIRDWPCIYIHDLFVFIVSLITDVPDDFLILNFQDLLFFFFVFVFLIF,66200
5,SSSTVVLAFGTDEKKIKEVGDALKTKLSVKGGGKGPRWSGKFAGVWKEDSAIE,< 6570
6,ESLREIGLTSVRDIITRHASEQAILTVVDFPLRVLAMIAQIRCGLWVRNGFVI,77800
7,RCGILLGSKNDGEGVDFVRVRGERIERGSSASIEEGIGEMGRSRPVRFGGGEE,21500
8,YREIPPEQLHGFPRIVDDINYNPVFLFDTFAAYTTLINYWMHMLILRSNTFLL,53100
9,AFGGGNTTGGGMFGNNTSKPAFGGTSNTGGALFGGGSNTNTGTAGFGTSFGGT,13900
10,ARVIRCNRSAELHVVNRLREVCEDQELRADSTALTSLVRTCRSDLRACINALQ,59300
11,NLCLLIAASLISIISLVNLLDFFLTWFGQFITIENLTLELILGYILYPYAWLL,40000
12,APPSSKPSPPPTSAASPAAPRAASPRPRAASSAGCRPRRGATRCCSRARASRS,39400
13,RIAKRRRKDGEPMLYAPDELKEGRWAPKELIKTMARLRRSIQIVLCLSLLSGF,77000
14,WLVKVYRLGPFSRDKRYGFAKLLGLKLNYDVKQVKQKPSFQLSMALALLNKCT,64500
15,DVDWWNVSSSETTFDAASLPLDVWDPLLPHDTGLSEIEVTTCWLDPWIIPFIT,132000
16,SHPDIMDAAVIGVEGEGTEVPRAYVVADRKKVNEKKVQEWVKGRTARNKRLRG,25900
17,LRLLVAWLIPQLEMWLHTNMGVRFLLIEYTPEHLGTVLALREFIGDHMFKVAG,49000
18,ATCPSFFRSICSTYYDNFVFVWDAVAAFLVPYQRYTYYPIMGIARFNLYLLSW,52400
19,GYVYVSGFLALVIVVSTYFYMLSRLVLLVLPFLYLRSLSPAAYHVVHWTSFIP,61000
20,IMYTSHHDPKHCFEETRDGTLKVHVIGDWLPRGIFGKMYILFAILRQLVLVLW,74900
21,MFCLRSWIPILFFLTNASPIYLLLFISATYTLNRPCVYCSLLLGILVLALFDF,28600

row,Sequence,transcriptional activation domain activity
1,ILLAAHQILFIFCCWLFTITVCIPLSVIYYLFAILRLIKHYLLHRRPLIAYFL,56900
2,PTAPNSSLPGCDVWDDIVTAAYYVNPCFNFYHLIDFCPYLWDELGFPSLAWGP,72200
3,AGSGGEGADGNETRRRSSGRGRGRGRGRGGRASRGGRGGKSEGAEGFTEKAEG,15900
4,HLYQISLLLSIFVFFSQGLCRFLYYLPPVPFLTHISSTKLWVWIGLVACLTLK,65800
5,SLYRVWDCKSTMLAFSKYIPQIHSPSALEYALVSMGSDFVLFLLRRIFEILKK,55500
6,MFCLRSWIPVLFFLLRTNASPVYLVLFLSATYFLNRPCVYCSLLLFILVVALF,46500
7,SRHGREASEERARRKRRERQRDNDGGNRSRRKHTSPSSDDADRLTRKRKSRHE,11000
8,FTKTIMHITLILNILMNMCVAPTLLPLQVYYWLTKYYCACHGCLPHFTVIALF,60900
9,AEDRYIMELFVEDFICLAISGGPRLPVERAVSSWMVRILLSIQIRNYMQGNRQ,44500
10,NEEEEEASDHEAEEPKPKKKRGRLAKEVDEEPEAPAPKKARGRPRKAVVKEED,24400
11,MLFIFFVIFFYFFLFSSIFFYHFIFLFSLELSLYFVDLSLELIPIYFPVCILS,46300
12,GLNPLRTTLMMSLNIIRSLFPAFRGYSQALIVDELQSLIASESFTWSRLLWLM,57900
13,SMLNGFAGLDDIPMENILRFLNRFVVNNLLLDILCQCSRHARRTLAGNIFRAA,47000
14,DYCSFNSFPPSHFMSLYKNLGSFFLLSSFPPPPFFFVLLYLPASCLCFFCLFF,54500
15,HSQYMGYFGGYLVCHLWFTHRFVGMLRLGVVDVVWRFCVYLGLVGWSLGVCYS,72500
16,TRCLLMYMYFLQDIGIYIYCILILNLFRKVRRLIPFPSRVLMVLHVITICIFT,74300
17,MHCRDIMRFNEMELAKLRLLLGSNCQALRNTASLLSRNLACSKIIYLSVRLGE,21000
18,DSEADSEDDDNGAESDKKMPVADKSEHQTGILSKLYKLNVYGEGSFFKPHKDT,45700
19,VLYPLWPLKMRQGVYYLSWGFLCLLGLFFLMAIFRVILFCITYFVVSPGLWLF,34400
20,MMHCLRYFLLLLFLPFPSAPPYLLLLFIVSMFLYHRPCAYCTFLIMSIFSATC,76700
21,HFAFESLAQTKHLERICMLSIRFVYVYAPHGEPIQLVVGFLICLLSNSPVSNG,55200

row,Sequence,transcriptional activation domain activity
1,NTLSRTKAYMTFILAFVAITSIVRFTGSTLYLIARFLLGKRAWITYLIYVYLY,52700
2,EKEKERKHKHRSRRDRSRSRDSDGGRDRRHRHRRDRSRSRDAHDDRERRHRHS,19000
3,HLGHEAQASIEEEEEEEEEEEEEEEEEERRGEGGSVRKATHKIAAATVASVGT,33300
4,AAEEKEGYEDEAEEGEDEEEDEEDPEVRRKEELRARMAKMSAGMGGMGGMGMM,10100
5,SMLEQQESTSAARAEGQRGGAVQEGDIELVDAACVQLASRISPKSLLQRPMVD,31900
6,ILLEVLGKVRGDHTPKRQETSVQGIRRRFRDDLAFLCEYDKGGIACTAIGIEE,12500
7,LTVLGWLSTRKNMSFKSTPSNIRQSLKYSHIPLCLFYSSFTKFFLLLLLSIWD,42100
8,LGVFGVALYVLSFFENFDSCHWCFHYDLWSPMAYILMRYSIEAILWSSRLALF,70600
9,STLVFLKLYSSLMLGTCLTSILCFSLPDFFPGKRGFAIGLCLYHSICSTVLFQ,63900
10,TPYWVLWNLRSSYGPVWQFLLKWIPFNMLLHRYYHCVKMELGYLFIFGNDFLR,56300
11,HTQPNLVPWLRCFPADAISVELISHEYIIRILRPILPADWQRPLFYSHRIRMY,28900
12,MCVAFSFSSPRFFYSWVMGDFSFFFSFLPPFDSFFSFSLGSIMYPLFLGIFFF,59400
13,EEEQPKKKSARKKKNAEDEDEDWDAKPKPKAKPKAKAAKKKAADGEEAGDAEK,26200
14,WHVAYPLVATGLCVAPQEFFLKHWLAFLREKGTRSFVLNGMLRLLWTYLYRCQ,45800
15,SMDQIREYNTRLQLVNAQSFDYTDNPYSFNVGINQDSAVFDLMTSPFTQEEVL,112000
16,WDLLLGIQMSWDAVLDLWPRLWAWFEFLDTYSDILSSLLVYLSDADFSLIWVL,62800
17,MCGGSFSLHRLHFFFIYVCFFCFVLSCLFTLAYWVVLYYARLVMGFWWFWWFG,58300
18,STHSVSLLVVWALRRIRVNLVKLAGITYMVPFPLLLVLVMIGSSSYLSWIFWI,64900
19,GVRKDRQQMYFILATNSMIDLGFVVASFVPLVLLWIGGMGYLRVVWRVTLGLG,51400
20,LCLERLFPPLMREIFCELGIASQVFQRIVFTAIYRRICGTGPHLAHLEAKALE,30100
21,SAGTAQAGKKPRILLKVNGRSYQRVDCVGRGGSGKVYKVTAENGKMFAMKRVS,45100

row,Sequence,transcriptional activation domain activity
1,AVMFGQVCVILVAFCFTNQITFVGIRHGLWRSRINTIRLYIFLLRCWQILCGL,60900
2,GCLLPVTSCVFLAPFTLDFLWIPFLTHYLIILLCWYHLFSLRLLFCCSKSLPT,57200
3,FFLLIALLPAWVVGFCIVFSIAMSCAAYDTLQVSLVATVSNDLFRNKISIWWV,42000
4,LCILVYLSHVSYLTLLPRFDYLYNIIFNMVIGLSHNALWLVYSLPISAFRRFP,75800
5,QGRTLDVTRAVSRDRAEKLRETGERTRERKDKRNLYLMREGVIFVSTPSASTL,39700
6,MNGGNGFGFWFGVWFWLGIYILSLFFFFFSFSFLLLCVFVSFHSLVFFFFFFS,53300
7,LRWMLRCAFALTRYGTTAFLLFFVYVVFLLRVYLLTDRRRSLLYCLTATFVVE,40100
8,RDAKERGEGKRKREERDSRRSERGEEDGKRRRESSADRDPDRKRSRRRRKDRD,40900
9,GKGKPRDNAKEEEKEEERKIPQAIVVSGLHHASTAAQLALSSALREGEIEMDG,15000
10,KKGRRKENGEGGEEKGKGAGGRGEGEEAGRRSRIKGVGGKRRGAGRRRGRREG,17100
11,AEEREAKKRAREEEEEEEAERAERAERAARLRRERAEEARRQAEQKHAEEARQ,12100
12,GKPVALRTSTRVKDVSGDGIVTLESGEQISADVVVGADGVHSRTRYAIPGSAG,52400
13,NFFLKDNAPVLQEYLAVFRHLLSFHDPELSSHLDTIGFMPDLYAIPWFLTLFT,16300
14,SGLPIQYLNGSVTYQDGWVWLPGDSTDINATVQDLEDMWDSMVLNFWPLMTLF,66100
15,MFFRRFLMYFVELTGIMYCLIVFFMVSLFLLYRRNMIEEQFPNKTIILYGKRV,58500
16,VIHTTAKPYKLHFSNTLLVSTVGLLALLVTTMVFVPWNNYYLPRKWGVFLICF,42700
17,ASQFPWAQIEITWRCLTYLCFDSFLELPQYWMLRQKFLVEHALLAYAARYCLV,54100
18,YVVQYKNSLIGKHFKMLQQLGVFHLHDLCTPLLFDLWKATGELGALLWYPEIK,33300
19,KMVHRPLLWYFTVFLVDMYTALRLFRLGFRHYAPRTQTRSWFRVFPPRPFTWV,71700
20,RTKDEMKCTSCNAPTSRVCARCKHTLYCSSEHQKKHWKQHRQACVPYGAQLVK,50600
